# Laboratory results from patent publication US20250295734A1, “ANTICOAGULANT PROTEINS AND THEIR USE FOR TREATING DISEASES ASSOCIATED WITH THE ACTIVATION OF NEUTROPHILS” (BIOXODES, priority 2018, published 2025).
# B1: Ir-CPI: Ixodes ricinus salivary gland polypeptide, contact phase inhibitor, MW=7660 Da; sequence SEQ ID NO: 1 or SEQ ID NO: 2 (protein)
# chain: ANHKGRGRPAKCKLPPDDGPCRARIPSYYFDRKTKTCKEFMYGGCEGNENNFENITTCQEECRAKKV
# How the values were obtained:
# [1] = Quantification of Ir-CPI in plasma samples by ELISA; format: in vivo, mice (C57BL/6JRj); conditions: iv bolus 20.5 mg/kg + infusion 3.7 mg/kg/h; after about 150 min of procedure; Mean±SEM, n=5
# Method: Plasma (around 250 μL) was centrifuged at 18-22° C./at 2500 g during 15 min. Plasma was centrifuged again (18-22° C. at 2500 g during 15 min) and was stored into a polypropylene tube at −80° C. Plasma samples were later sent frozen on dry ice for dosage of the circulating concentration of Ir-CPI by ELISA.
# The quantification of circulating Ir-CPI in the plasma samples was assessed by ELISA at Eurofins, ADME Bioanalyses (Vergèze, France). A sandwich immuno-assay was carried out using two anti-Ir-CPI antibodies. The capture monoclonal antibody (Ir-CPI3) was coated to microtitration plates (Nunc, ThermoFischer Scientific, USA) at 1 μg/mL overnight at 4° C. in PBS (Hyclone, USA). Wells were blocked with PBS BSA 2% (Sigma-Aldrich, USA) at room temperature (RT) for 1 h and were then washed. Samples were added into the wells and incubated for 2 h at RT. The biotinylated detection antibody (L39-biotin), previously diluted in PBS BSA 1% (Sigma-Aldrich, USA), was added to the wells and complemented with streptavidin-HRP (REF) diluted in PBS BSA 1%. TMB SureBlue (KPL, REF) and H2SO4 IN (VWR, USA) were used for spectrophotometric detection (450 nm).
# [2] = system: platelet accumulation and fibrin generation in Panc02 tumor-bearing mice; assay: Laser injury in pancreatic cancer-bearing mice (cancer-associated thrombosis model); format: in vivo, mice (C57BL/6JRj); conditions: for fibrin generation compared to NaCl cancer mice / platelet accumulation compared to NaCl cancer mice: tumor-bearing mice
# Method: Murine Panc02 cells (mouse pancreatic ductal adenocarcinoma cell line) were cultured to a 80% confluence in RPMI-1640 medium (Life Technologies) supplemented with 10% FCS (PAA), 1000 U/mL penicillin (Life Technologies), 100 μg/mL streptomycin (Life Technologies) and 0.1% fungizone (Life Technologies) at 37° C. in a humidified atmosphere with 5% CO2. Once in the exponential growth phase, cells were washed three times with PBS and briefly exposed to non-enzymatic cell dissociation buffer (Life
# Technologies) to dislodge the cells. The cells were carefully washed three times, resuspended in PBS, and diluted to the desired concentration.
# Five-week-old C57BL/6 mice were injected subcutaneously in the right flank with a tumor cell suspension (10^6 cells in 100 μL of PBS). When the tumor became palpable (0.2 cm), measurements in two dimensions were performed with a caliper, and the volume of each tumor was calculated according to the formula for the volume of an ellipsoid: π/6×a(b)^2, where a is the largest diameter and b the smallest diameter of the tumor.
# Intravital video-microscopy of the cremaster muscle microcirculation was done as previously described (Falati et al., 2002) and as described hereinabove (see Example 1).
# Vessel wall injury was induced with a Micropoint Laser System (Photonics Instruments) as described hereinabove (see Example 1).
# Platelet and fibrin accumulation after injury were monitored and detected as indicated hereinabove (see Example 1).
# Tumor-bearing mice were attributed to the Ir-CPI-treated group (Ir-CPI cancer) or to the control group (NaCl cancer). Moreover, cancer-free mice treated with NaCl (NaCl cancer-free) were also used as negative control. All mice were submitted to laser injuries in arterioles of the cremaster muscle to trigger thrombosis. Ir-CPI treated mice received either a low or a high dose of the investigative product.
# Platelet accumulation and fibrin generation on the injured vessel walls were monitored using the following fluorescently labeled antibodies: DyLight649-labeled anti-GPIb antibody and Alexa Fluor 488-conjugated anti-fibrin antibody, respectively.
# [3] = system: neutrophils isolated from the bone marrow of femurs of mice; assay: In vitro NETosis assay; format: cell-based, mice (C57BL/6); conditions: PMNs primed with TNFα, activated with PAF
# Method: Neutrophils were isolated from the bone marrow of femurs of mice (C57BL/6) as previously described (Hu 2012) using FR-1-coupled magnetic beads (anti-Ly6G Microbead Kit, Miltenyi Biotec).
# Cells were harvested, centrifugated and incubated during 30 min with or without 2 ng/ml of TNFα in Hanks solution (Gibco). Neutrophils were seeded on slides coated with poly-L-lysine and incubated at 37° C. for 1 h in Hanks solution. Next, neutrophils were activated with or without 25 μM of platelet-activating factor (PAF)±Ir-CPI (0.65 or 2 μM) in Hanks solution (3 h at 37° C.). NET formation was assessed by immunofluorescence (fluorescent microscope from Leica) after fixation of neutrophils with 4% PAF (paraformaldehyde) and fluorescent labelling of citrullinated histones (H3 antibody) and nuclei (Hoechst). Processing and analysis of images was performed using the FIJI software.
# Percentage of NETosis (median) was presented for 5 independent experiments. A Wilcoxon test was used for statistical analysis (ns: not significant; *p<0.05; **p<0.01; ***p<0.001). […]
# [4] = system: thrombin generation induced by ellagic acid (intrinsic pathway activator); conditions: cited from earlier work
# clot fibrinolysis = conditions: dose-dependent; in a lesser extend than aPTT; cited from earlier work
# [5] = High dose: 20.5 mg/kg bolus + 3.7 mg/kg/h
# [6] = Low dose: 10.3 mg/kg bolus + 1.9 mg/kg/h
molecule,measurement,setting,value
B1,Mean plasma concentration,[1],6480 ± 1020 ng/mL
same,fibrin generation compared to NaCl cancer mice,[2]; [5],significant decrease
same,platelet accumulation compared to NaCl cancer mice,[2]; [5],significant decrease
same,integrated fluorescence intensity of platelet labeling (area under curve),"[2]; High dose, vs NaCl cancer-free mice (*p<0.05) and NaCl cancer mice (***p<0.001)",significantly lower
same,fibrin generation compared to NaCl cancer mice,[2]; [6],significant decrease
same,platelet accumulation compared to NaCl cancer mice,[2]; [6],significant decrease
same,percentage of NET formation,"[3]; Ir-CPI 0.65 μM, *p<0.05 vs TNFα and PAF",significant reduction
same,percentage of NET formation,"[3]; Ir-CPI 2 μM, ***p<0.001 vs TNFα and PAF",significant reduction
same,thrombin generation,[4],strong dose-dependent reduction
same,clot fibrinolysis time,clot fibrinolysis,prolongs
